According to US20230257470A1 (published 2023):
Where a chain is given by its changes, count along the chain named. Names and notes keep the numbering of the source.

B1: antibody containing VH3-IgG2-F890 for the heavy chain and L(WT)-CK for the light chain (antibody)
heavy: QVQLQESGPGLVKPSETLSLTCAVSGHSISHDHAWSWVRQPPGEGLEWIGFISYSGITNYNPSLQGRVTISRDNSKNTLYLQMNSLRAEDTAVYYCARSLARTTAMDYWGEGTLVTVSSASTKGPSVFPLAPCSRSTSESTAALGCLVKDYFPEPVTVSWNSGALTSGVHTFPAVLQSSGLYSLSSVVTVPSSNFGTQTYTCNVDHKPSNTKVDKTVERKCCVECPPCPAPPVAGPSVFLFPPKPKDTLYISRTPEVTCVVVDVSHEDPEVQFNWYVDGVEVHNAKTKPREEQFNSTFRVVSVLTVVHQDWLNGKEYKCKVSNKGLPAPIEKTISKTKGQPREPQVYTLPPSREEMTKNQVSLTCLVKGFYPSDIAVEWESNGQPENNYKTTPPMLDSDGSFFLYSKLTVDKSRWQQGNVFSCSVMHEALHYHVTQKSLSLSP
light: not shown
notes: VH3-IgG2 with M252Y/N434Y/Y436V (EU numbering)
B2: antibody containing VH3-IgG2 for the heavy chain and L(WT)-CK for the light chain (antibody)
heavy: B1 heavy with Y250M, Y432N, V434Y
light: not shown
B3: antibody containing VH3-IgG2-F939 for the heavy chain and L(WT)-CK for the light chain (antibody)
heavy: B1 heavy with A234R, S237K
light: not shown
notes: VH3-IgG2 with A235R/S239K/M252Y/N434Y/Y436V (EU numbering)
B4: antibody containing VH3-IgG4-F890 for the heavy chain and L(WT)-CK for the light chain (antibody)
heavy: QVQLQESGPGLVKPSETLSLTCAVSGHSISHDHAWSWVRQPPGEGLEWIGFISYSGITNYNPSLQGRVTISRDNSKNTLYLQMNSLRAEDTAVYYCARSLARTTAMDYWGEGTLVTVSSASTKGPSVFPLAPCSRSTSESTAALGCLVKDYFPEPVTVSWNSGALTSGVHTFPAVLQSSGLYSLSSVVTVPSSSLGTKTYTCNVDHKPSNTKVDKRVESKYGPPCPPCPAPEFLGGPSVFLFPPKPKDTLYISRTPEVTCVVVDVSQEDPEVQFNWYVDGVEVHNAKTKPREEQFNSTYRVVSVLTVLHQDWLNGKEYKCKVSNKGLPSSIEKTISKAKGQPREPQVYTLPPSQEEMTKNQVSLTCLVKGFYPSDIAVEWESNGQPENNYKTTPPVLDSDGSFFLYSRLTVDKSRWQEGNVFSCSVMHEALHYHVTQKSLSLSL
light: not shown
notes: VH3-IgG4 with M252Y/N434Y/Y436V (EU numbering)
B5: antibody containing VH3-IgG4-F939 for the heavy chain and L(WT)-CK for the light chain (antibody)
heavy: B4 heavy with L234R, S238K
light: not shown
notes: VH3-IgG4 with L235R/S239K/M252Y/N434Y/Y436V (EU numbering)
B6: IL6R-F652/IL6R-L (antibody, human IgG1)
heavy: QVQLQESGPGLVKPSETLSLTCAVSGHSISHDHAWSWVRQPPGEGLEWIGFISYSGITNYNPSLQGRVTISRDNSKNTLYLQMNSLRAEDTAVYYCARSLARTTAMDYWGEGTLVTVSSASTKGPSVFPLAPSSKSTSGGTAALGCLVKDYFPEPVTVSWNSGALTSGVHTFPAVLQSSGLYSLSSVVTVPSSSLGTQTYICNVNHKPSNTKVDKKVEPKSCDKTHTCPPCPAPELLGGDSVFLFPPKPKDTLYISRTPEVTCVVVDVSHEDPEVKFNWYVDGVEVHNAKTKPREEQYNSTYRVVSVLTVLHQDWLNGKEYKCKVSNKALPAPIEKTISKAKGQPREPQVYTLPPSRDELTKNQVSLTCLVKGFYPSDIAVEWESNGQPENNYKTTPPVLDSDGSFFLYSKLTVDKSRWQQGNVFSCSVMHEALHYHYTQKSLSLSP
light: DIQMTQSPSSLSASVGDRVTITCRASQDISSYLNWYQQKPGKAPKLLIYYTSRLHSGVPSRFSGSGSGTDFTFTISSLQPEDIATYYCQQGNTLPYTFGQGTKVEIK
notes: P238D introduced into IL6R-F11 (M252Y/N434Y in IL6R-G1d); also called P238D
B7: IL6R-PD086/IL6R-L (antibody, human IgG1)
heavy: B6 heavy with G239L
light: B6 light
notes: Alterations introduced into IL6R-F11; also called P238D/G237L
B8: IL6R-PD094/IL6R-L (antibody, human IgG1)
heavy: B6 heavy with G239W
light: B6 light
notes: Alterations introduced into IL6R-F11; also called P238D/G237W
B9: IL6R-PD097/IL6R-L (antibody, human IgG1)
heavy: B6 heavy with S241D
light: B6 light
notes: Alterations introduced into IL6R-F11; also called P238D/S239D

Experiments:
human FcγRIa = biological target: T1, human FcγRIa (human, UniProt P12314 16-292, limits assumed); assay: SPR (Biacore), antibody captured by Protein L, FcγR as analyte, pH 7.4, 25 C;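 further: Buffer-blank-subtracted FcγR response, normalized to the captured antibody level and scaled to 1500 RU of captured antibody, CM4 chip, ACES-NaCl running buffer with polysorbate 20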
T1 construct: Soluble analyte in SPR; also called hFcgRIa; FcgRIa
T1 sequence (P12314 16-292 limits assumed): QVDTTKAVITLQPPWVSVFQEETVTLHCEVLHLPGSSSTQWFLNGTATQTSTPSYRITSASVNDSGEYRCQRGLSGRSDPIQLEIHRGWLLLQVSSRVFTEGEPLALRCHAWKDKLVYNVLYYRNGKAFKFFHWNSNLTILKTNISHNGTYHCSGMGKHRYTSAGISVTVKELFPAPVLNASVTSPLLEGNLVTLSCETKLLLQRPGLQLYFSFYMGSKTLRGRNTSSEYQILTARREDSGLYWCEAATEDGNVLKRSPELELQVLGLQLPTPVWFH
Method: (§1) Binding activity between the antibodies and human FcγRIa, FcγRIIa(H), FcγRIIa(R), FcγRIIb and FcγRIIIa(F) (hereinafter referred to as human FcγRs) was evaluated using the BIACORE™ T100 or T200 surface plasmon resonance system (GE Healthcare). The antibodies being tested were captured by Protein L (ACTIGEN® protein (Alltech)) that was immobilized in suitable amounts on the CM4 Sensor Chip (GE Healthcare) by amine coupling. Next, the diluted human FcγRs and a running buffer used as a blank were injected to allow interaction with the antibodies captured on the sensor chip. A buffer consisting of 20 mmol/L N-(2-acetamido)-2-aminoethanesulfonic acid (ACES), 150 mmol/L NaCl and 0.05% (w/v) polysorbate 20 (Tween 20®) (pH 7.4) was used for the running buffer, and this buffer was also used to dilute the human FcγRs. 10 mmol/L glycine-HCl (pH 1.5) was used to regenerate the sensor chip. All measurements were carried out at 25° C.
(§2) Binding activity to human FcγRs can be represented by the relative binding activity to human FcγRs. Antibody was captured by Protein L, and the amount of change in a sensorgram before and after the antibody was captured was defined as X1. Next, human FcγRs were allowed to interact with the antibody, and the value obtained by subtracting binding activity of human FcγRs represented as the amount of change in a sensorgram before and after allowing the running buffer to interact with antibody captured by Protein L (ΔA2) from the value obtained by multiplying by 1500 the value obtained by dividing the binding activity of human FcγRs represented as the amount of change in a sensorgram before and after that interaction (ΔA1) by the captured amount (X) of each antibody, was divided by the captured amount of each antibody (X) followed by multiplying by 1500 to obtain the binding activity of the human FcγRs (Y) (Equation 2).

[1] = biological target: T2, human FcγRIIIa(F) (allotype F158) (human, UniProt P08637 17-208, limits assumed); assay: as above
T2 construct: also called hFcgRIIIa(F); FcgRIIIaF
T2 sequence (P08637 other isoform, or with tags, fused parts or gaps limits assumed): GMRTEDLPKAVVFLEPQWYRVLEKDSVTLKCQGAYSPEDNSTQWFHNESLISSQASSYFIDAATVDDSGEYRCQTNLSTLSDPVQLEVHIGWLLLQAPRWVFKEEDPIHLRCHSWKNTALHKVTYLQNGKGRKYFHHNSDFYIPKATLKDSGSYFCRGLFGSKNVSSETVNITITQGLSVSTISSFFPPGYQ
Method: as §1, §2

[2] = biological target: T3, human FcγRIIIa(V) (allotype V158) (human, UniProt P08637 17-208, limits assumed); assay: as above
T3 construct: also called hFcgRIIIa(V)
T3 sequence (P08637 other isoform, or with tags, fused parts or gaps limits assumed): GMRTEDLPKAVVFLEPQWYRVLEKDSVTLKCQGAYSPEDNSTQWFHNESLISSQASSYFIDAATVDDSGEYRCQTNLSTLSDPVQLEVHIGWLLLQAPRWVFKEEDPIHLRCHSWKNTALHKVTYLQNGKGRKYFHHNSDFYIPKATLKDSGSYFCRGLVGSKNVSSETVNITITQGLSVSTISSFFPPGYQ
Method: as §1, §2

[3] = biological target: T4, human FcγRIIa(R) (allotype R131) (human, UniProt P12318 36-217); assay: as above
T4 construct: Soluble analyte in SPR; also called hFcgRIIa(R); FcgRIIaR
T4 chain: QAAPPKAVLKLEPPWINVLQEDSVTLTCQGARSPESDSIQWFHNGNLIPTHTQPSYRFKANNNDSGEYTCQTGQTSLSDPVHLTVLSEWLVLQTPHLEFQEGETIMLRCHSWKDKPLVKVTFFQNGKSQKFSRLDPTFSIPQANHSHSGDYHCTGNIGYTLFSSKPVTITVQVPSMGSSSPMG
Method: as §1, §2

[4] = biological target: T5, human FcγRIIa(H) (allotype H131) (human, UniProt P12318 36-217); assay: as above
T5 construct: Soluble analyte in SPR; also called hFcgRIIa(H); FcgRIIaH
T5 sequence: T4 chain with R133H
Method: as §1, §2

human FcγRIIb [5] = biological target: T6, human FcγRIIb (human, UniProt P31994 43-217, limits assumed); assay: as above
T6 construct: Soluble analyte in SPR; also called hFcgRIIb; FcgRIIb
T6 sequence: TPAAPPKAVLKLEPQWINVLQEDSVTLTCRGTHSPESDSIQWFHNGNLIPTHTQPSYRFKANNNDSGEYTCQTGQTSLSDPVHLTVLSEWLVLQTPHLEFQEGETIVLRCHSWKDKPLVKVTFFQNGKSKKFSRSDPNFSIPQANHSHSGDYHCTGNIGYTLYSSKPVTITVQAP
Method: as §1, §2

human FcγRIIa type R = biological target: T7, human FcγRIIa type R (human, UniProt P12318 36-217); assay: SPR (Biacore), captured antibody, FcγR as analyte; binding amount divided by that of IL6R-F652/IL6R-L, times 100
T7 construct: also called FcγRIIaR; Fc γ RIIaR
T7 chain: T4 chain

human FcγRIIb [6] = biological target: T8, human FcγRIIb (human, UniProt P31994 43-217); assay: as above
T8 construct: also called FcγIIB
T8 sequence: T6 sequence

Row | Binder | BINDING AMOUNT (RU) (human FcγRIa) | BINDING AMOUNT (RU) [1] [RU] | BINDING AMOUNT (RU) [2] [RU] | BINDING AMOUNT (RU) [3] [RU] | BINDING AMOUNT (RU) [4] [RU] | BINDING AMOUNT (RU) (human FcγRIIb [5]) | RELATIVE BINDING ACTIVITY FOR FcγRIIaR (human FcγRIIa type R) | RELATIVE BINDING ACTIVITY FOR FcγRIIb (human FcγRIIb [6])
1 | B1 | 19.7 | 9.3 | 28.1 | 120 | 204 | 31.9 | – | –
2 | B2 | 38.6 | 16.3 | 50.1 | 188 | 266 | 55.5 | – | –
3 | B3 | 1.3 | 0.6 | 1.1 | 1 | 1 | 0.4 | – | –
4 | B4 | 367 | 3.4 | 15.5 | 92.8 | 37.5 | 71.8 | – | –
5 | B5 | 1.2 | -1.7 | -0.5 | -0.2 | -0.7 | 0.4 | – | –
6 | B6 | – | – | – | – | – | – | 100 relative (IL6R-F652/IL6R-L = 100) | 100 relative (IL6R-F652/IL6R-L = 100)
7 | B7 | – | – | – | – | – | – | 268 relative (IL6R-F652/IL6R-L = 100) | 112 relative (IL6R-F652/IL6R-L = 100)
8 | B8 | – | – | – | – | – | – | 593 relative (IL6R-F652/IL6R-L = 100) | 122 relative (IL6R-F652/IL6R-L = 100)
9 | B9 | – | – | – | – | – | – | 844 relative (IL6R-F652/IL6R-L = 100) | 139 relative (IL6R-F652/IL6R-L = 100)
